According to patent US20200317768A1 (published 2020):

Tests used:
Assay in all cases: SPR (Biacore); KD of SG1 divided by KD of the variant for this FcgR;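 note: relative to parent M103205H795-SG1 carrying the SG1 human heavy chain constant region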
[1] = molecular target: T1, cynomolgus monkey FcγRIIb extracellular domain with C-terminal His-tag (cynomolgus monkey)
T1 construct: Expressed in FreeStyle 293 cells and purified; also called cyno FcγRIIb; cynoFcγRIIb; not shown: C-terminal His-tag
T1 chain: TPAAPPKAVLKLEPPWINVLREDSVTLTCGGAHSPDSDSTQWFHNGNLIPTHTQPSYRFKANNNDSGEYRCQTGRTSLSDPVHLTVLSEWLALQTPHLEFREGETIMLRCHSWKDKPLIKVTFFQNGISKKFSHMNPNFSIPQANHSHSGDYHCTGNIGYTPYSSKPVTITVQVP
Description: (§1) Regarding such interactions, KD values were calculated using the following 1:1 binding model described in BIACORE® T100 Software Handbook BR1006-48 Edition AE.
(§2) The behavior of interacting molecules according to the 1:1 binding model on BIACORE® can be described by Equation 1: Req=C·R max/(KD+C)+RI, wherein, Req is a plot of steady-state binding levels to analyte concentration. C is concentration, RI is bulk refractive index contribution in the sample, and Rmax is analyte binding capacity of the surface. When this equation is rearranged, KD can be expressed as Equation 2: KD=C·Rmax/(Req−RI)−C. KD can be calculated by substituting the values of Rmax, RI, and C into Equation 1 or Equation 2. From the current measurement conditions, RI=0, C=2 μmol/L can be used.
(§3) The variants were expressed using M103202L889-SK1 as the light chain and their affinity was analyzed.

[2] = molecular target: T2, cynomolgus monkey FcγRIIIaS extracellular domain with C-terminal His-tag (cynomolgus monkey, UniProt Q8SPW2 21-206 at identity 1.00))
T2 construct: Expressed in FreeStyle 293 cells and purified; also called cyno FcγRIIIaS; cynoFcγRIIIaS; not shown: C-terminal His-tag
T2 chain: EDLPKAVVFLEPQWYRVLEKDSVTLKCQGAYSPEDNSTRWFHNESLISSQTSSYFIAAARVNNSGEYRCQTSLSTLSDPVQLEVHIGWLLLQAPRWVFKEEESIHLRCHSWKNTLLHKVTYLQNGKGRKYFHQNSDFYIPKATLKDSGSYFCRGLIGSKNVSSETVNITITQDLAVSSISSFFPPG
Description: as §1, §2, §3

[3] = molecular target: T3, cynomolgus monkey FcγRIIa3 extracellular domain with C-terminal His-tag (cynomolgus monkey)
T3 construct: Expressed in FreeStyle 293 cells and purified; also called cyno FcγRIIa3; cynoFcgRIIa3; not shown: C-terminal His-tag
T3 chain: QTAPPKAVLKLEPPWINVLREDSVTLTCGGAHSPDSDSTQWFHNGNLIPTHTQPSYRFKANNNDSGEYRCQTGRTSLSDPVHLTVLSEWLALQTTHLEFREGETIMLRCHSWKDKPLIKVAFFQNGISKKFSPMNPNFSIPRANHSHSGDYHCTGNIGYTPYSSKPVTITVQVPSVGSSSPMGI
Description: as §1, §2, §3

[4] = molecular target: T4, cynomolgus monkey FcγRIIa1 extracellular domain with C-terminal His-tag (cynomolgus monkey)
T4 construct: Expressed in FreeStyle 293 cells and purified; also called cyno FcγRIIa1; cynoFcgRIIa1; not shown: C-terminal His-tag
T4 chain: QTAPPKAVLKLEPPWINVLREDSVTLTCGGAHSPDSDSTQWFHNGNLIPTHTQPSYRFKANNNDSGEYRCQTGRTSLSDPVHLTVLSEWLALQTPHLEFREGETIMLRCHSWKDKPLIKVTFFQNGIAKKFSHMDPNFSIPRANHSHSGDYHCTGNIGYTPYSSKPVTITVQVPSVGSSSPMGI
Description: as §1, §2, §3

[5] = molecular target: T5, human FcγRIIb extracellular domain with C-terminal His-tag (human, UniProt P31994 43-217)
T5 construct: Expressed in FreeStyle 293 cells and purified; also called humanFcgRIIb; not shown: C-terminal His-tag
T5 sequence: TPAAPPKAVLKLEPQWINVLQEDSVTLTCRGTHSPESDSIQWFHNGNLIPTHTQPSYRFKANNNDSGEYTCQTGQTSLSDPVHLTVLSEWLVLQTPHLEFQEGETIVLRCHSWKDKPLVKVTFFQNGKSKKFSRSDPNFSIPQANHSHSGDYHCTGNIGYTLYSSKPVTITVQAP
Description: as §1, §2, §3

[6] = molecular target: T6, cynomolgus monkey FcγRIIa2 extracellular domain with C-terminal His-tag (cynomolgus monkey)
T6 construct: Expressed in FreeStyle 293 cells and purified; also called cyno FcγRIIa2; cynoFcgRIIa2; not shown: C-terminal His-tag
T6 chain: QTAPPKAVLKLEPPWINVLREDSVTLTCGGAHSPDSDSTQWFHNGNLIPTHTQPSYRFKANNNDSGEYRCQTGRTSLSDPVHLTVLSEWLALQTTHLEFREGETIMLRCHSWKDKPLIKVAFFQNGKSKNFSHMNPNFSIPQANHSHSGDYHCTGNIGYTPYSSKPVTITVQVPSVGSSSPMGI
Description: as §1, §2, §3

[7] = molecular target: T7, human FcγRIIaH extracellular domain with C-terminal His-tag (human, UniProt P12318 34-217)
T7 construct: Expressed in FreeStyle 293 cells and purified; also called human FcγRIIa (type H); FcgRIIaH; not shown: C-terminal His-tag
T7 sequence: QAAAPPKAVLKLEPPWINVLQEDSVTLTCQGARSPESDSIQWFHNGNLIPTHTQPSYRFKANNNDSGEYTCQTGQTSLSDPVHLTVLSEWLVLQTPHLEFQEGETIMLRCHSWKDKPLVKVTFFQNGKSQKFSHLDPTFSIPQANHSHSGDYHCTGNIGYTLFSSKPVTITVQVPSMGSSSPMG
Description: as §1, §2, §3

[8] = molecular target: T8, human FcγRIIIaV extracellular domain with C-terminal His-tag (human, UniProt P08637 17-208)
T8 construct: Expressed in FreeStyle 293 cells and purified; also called FcgRIIIaV; not shown: C-terminal His-tag
Description: as §1, §2, §3

[9] = molecular target: T9, human FcγRIIaR extracellular domain with C-terminal His-tag (human, UniProt P12318 34-217)
T9 construct: Expressed in FreeStyle 293 cells and purified; also called human FcγRIIa (type R); FcgRIIaR; not shown: C-terminal His-tag
T9 chain: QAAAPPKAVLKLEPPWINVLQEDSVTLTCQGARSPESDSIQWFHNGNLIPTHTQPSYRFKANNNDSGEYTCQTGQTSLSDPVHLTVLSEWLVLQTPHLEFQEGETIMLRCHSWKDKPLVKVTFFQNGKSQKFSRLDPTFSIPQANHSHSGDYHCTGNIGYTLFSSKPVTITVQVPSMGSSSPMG
Description: as §1, §2, §3

T8 sequence (P08637 17-208 F176V): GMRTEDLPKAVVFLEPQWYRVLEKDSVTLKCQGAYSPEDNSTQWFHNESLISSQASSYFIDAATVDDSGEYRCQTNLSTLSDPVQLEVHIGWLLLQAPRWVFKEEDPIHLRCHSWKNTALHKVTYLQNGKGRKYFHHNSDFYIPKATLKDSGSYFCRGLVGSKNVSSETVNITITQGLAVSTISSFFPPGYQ

B1: M103205H795-MY210 / M103202L889-SK1 (antibody, human IgG1, kappa)
heavy: QVTLKESGPVLVKPTETLTLTCTVSGIDLSHDDISWVRQAPGKGLEWVGIISYAGSTYYASWAKGRLTISKDTSKNQVVLTMTNMDPVDTATYYCARGVPAYSHGGDLWGQGTLVTVSSASTKGPSVFPLAPSSKSTSGGTAALGCLVKDYFPEPVTVSWNSGALTSGVHTFPAVLQSSGLYSLSSVVTVPSSSLGTQTYICNVNHKPSNTKVDKKVEPKSCDKTHTCPPCPAPELLNGPSVFLFPPKPKDTLMISRTPEVTCVVVDVSDEDPEVKFNWYVDGVEVHNAKTKPREEQYNSTYRVVSVLTVLHQDWLNGKEYKCKVSNTALPKPIEKTISKAKGQPREPQVYTLPPSREEMTKNQVSLTCLVKGFYPSDIAVEWESNGQPENNYKTTPPVLDSDGSFFLYSKLTVDKSRWQQGNVFSCSVMHEALHNHYTQKSLSLSP
light: DIVMTQSPATLSLSPGERATLSCTSSQSVYHANWLSWFQQKPGQPPKLLIYWASTLAYGVPSRFSGSGSGTDFTLTISSLQPEDAATYYCAGGYGGGRYAFGQGTKVEIKRTVAAPSVFIFPPSDEQLKSGTASVVCLLNNFYPREAKVQWKVDNALQSGNSQESVTEQDSKDSTYSLSSTLTLSKADYEKHKVYACEVTHQGLSSPVTKSFNRGEC
notes: Fc variant of M103205H795-SG1, expressed with M103202L889-SK1 as light chain
KD fold (SG1 = 1) [1]: 6.4 fold | KD fold (SG1 = 1) [2]: 0.15 fold | KD fold (SG1 = 1) [3]: 7.4 fold | KD fold (SG1 = 1) [4]: 3.4 fold | KD fold (SG1 = 1) [5]: 4.7 fold | KD fold (SG1 = 1) [6]: 8.1 fold | KD fold (SG1 = 1) [7]: 0.6 fold | KD fold (SG1 = 1) [8]: 0.05 fold | KD fold (SG1 = 1) [9]: 0.8 fold

B2: M103205H795-MY211 / M103202L889-SK1 (antibody, human IgG1, kappa)
heavy: QVTLKESGPVLVKPTETLTLTCTVSGIDLSHDDISWVRQAPGKGLEWVGIISYAGSTYYASWAKGRLTISKDTSKNQVVLTMTNMDPVDTATYYCARGVPAYSHGGDLWGQGTLVTVSSASTKGPSVFPLAPSSKSTSGGTAALGCLVKDYFPEPVTVSWNSGALTSGVHTFPAVLQSSGLYSLSSVVTVPSSSLGTQTYICNVNHKPSNTKVDKKVEPKSCDKTHTCPPCPAPELLNGPVVFLFPPKPKDTLMISRTPEVTCVVVDVSDEDPEVKFNWYVDGVEVHNAKTKPREEQYNSTYRVVSVLTVLHQDWLNGKEYKCKVSNTALPKPIEKTISKAKGQPREPQVYTLPPSREEMTKNQVSLTCLVKGFYPSDIAVEWESNGQPENNYKTTPPVLDSDGSFFLYSKLTVDKSRWQQGNVFSCSVMHEALHNHYTQKSLSLSP
light: DIVMTQSPATLSLSPGERATLSCTSSQSVYHANWLSWFQQKPGQPPKLLIYWASTLAYGVPSRFSGSGSGTDFTLTISSLQPEDAATYYCAGGYGGGRYAFGQGTKVEIKRTVAAPSVFIFPPSDEQLKSGTASVVCLLNNFYPREAKVQWKVDNALQSGNSQESVTEQDSKDSTYSLSSTLTLSKADYEKHKVYACEVTHQGLSSPVTKSFNRGEC
notes: as for B1
KD fold (SG1 = 1) [1]: 3.8 fold | KD fold (SG1 = 1) [2]: 0.12 fold | KD fold (SG1 = 1) [3]: 6.3 fold | KD fold (SG1 = 1) [4]: 4.3 fold | KD fold (SG1 = 1) [5]: 5.6 fold | KD fold (SG1 = 1) [6]: 3.8 fold | KD fold (SG1 = 1) [7]: 0.6 fold | KD fold (SG1 = 1) [8]: 0.17 fold | KD fold (SG1 = 1) [9]: 0.8 fold

B3: M103205H795-MY212 / M103202L889-SK1 (antibody, human IgG1, kappa)
heavy: QVTLKESGPVLVKPTETLTLTCTVSGIDLSHDDISWVRQAPGKGLEWVGIISYAGSTYYASWAKGRLTISKDTSKNQVVLTMTNMDPVDTATYYCARGVPAYSHGGDLWGQGTLVTVSSASTKGPSVFPLAPSSKSTSGGTAALGCLVKDYFPEPVTVSWNSGALTSGVHTFPAVLQSSGLYSLSSVVTVPSSSLGTQTYICNVNHKPSNTKVDKKVEPKSCDKTHTCPPCPAPELLNGPVVFLFPPKPKDTLMISRTPEVTCVVVDVSDEDPEVKFNWYVDGVEVHNAKTKPREELYNSTYRVVSVLTVLHQDWLNGKEYKCKVSNTALPKPIEKTISKAKGQPREPQVYTLPPSREEMTKNQVSLTCLVKGFYPSDIAVEWESNGQPENNYKTTPPVLDSDGSFFLYSKLTVDKSRWQQGNVFSCSVMHEALHNHYTQKSLSLSP
light: DIVMTQSPATLSLSPGERATLSCTSSQSVYHANWLSWFQQKPGQPPKLLIYWASTLAYGVPSRFSGSGSGTDFTLTISSLQPEDAATYYCAGGYGGGRYAFGQGTKVEIKRTVAAPSVFIFPPSDEQLKSGTASVVCLLNNFYPREAKVQWKVDNALQSGNSQESVTEQDSKDSTYSLSSTLTLSKADYEKHKVYACEVTHQGLSSPVTKSFNRGEC
notes: as for B1
KD fold (SG1 = 1) [1]: 4.9 fold | KD fold (SG1 = 1) [2]: 0.14 fold | KD fold (SG1 = 1) [3]: 5.9 fold | KD fold (SG1 = 1) [4]: 5.7 fold | KD fold (SG1 = 1) [5]: 7.3 fold | KD fold (SG1 = 1) [6]: 9.6 fold | KD fold (SG1 = 1) [7]: 0.9 fold | KD fold (SG1 = 1) [8]: 0.12 fold | KD fold (SG1 = 1) [9]: 0.8 fold

B4: M103205H795-MY288 / M103202L889-SK1 (antibody, human IgG1, kappa)
heavy: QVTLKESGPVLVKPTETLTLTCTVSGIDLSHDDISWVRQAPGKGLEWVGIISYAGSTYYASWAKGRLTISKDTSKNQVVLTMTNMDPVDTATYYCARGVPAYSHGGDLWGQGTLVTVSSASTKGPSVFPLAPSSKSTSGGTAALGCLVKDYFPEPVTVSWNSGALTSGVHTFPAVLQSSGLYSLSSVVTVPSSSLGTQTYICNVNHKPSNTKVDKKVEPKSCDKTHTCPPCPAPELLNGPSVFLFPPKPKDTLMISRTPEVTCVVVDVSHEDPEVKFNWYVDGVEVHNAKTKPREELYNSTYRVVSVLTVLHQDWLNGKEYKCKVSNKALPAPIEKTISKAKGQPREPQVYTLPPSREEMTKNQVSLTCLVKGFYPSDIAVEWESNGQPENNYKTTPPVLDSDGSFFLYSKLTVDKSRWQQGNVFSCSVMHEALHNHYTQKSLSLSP
light: DIVMTQSPATLSLSPGERATLSCTSSQSVYHANWLSWFQQKPGQPPKLLIYWASTLAYGVPSRFSGSGSGTDFTLTISSLQPEDAATYYCAGGYGGGRYAFGQGTKVEIKRTVAAPSVFIFPPSDEQLKSGTASVVCLLNNFYPREAKVQWKVDNALQSGNSQESVTEQDSKDSTYSLSSTLTLSKADYEKHKVYACEVTHQGLSSPVTKSFNRGEC
notes: as for B1
KD fold (SG1 = 1) [1]: 3.5 fold | KD fold (SG1 = 1) [2]: 0.08 fold | KD fold (SG1 = 1) [3]: 3.6 fold | KD fold (SG1 = 1) [4]: 2.1 fold | KD fold (SG1 = 1) [5]: 0.9 fold | KD fold (SG1 = 1) [6]: 2.6 fold | KD fold (SG1 = 1) [7]: 0.5 fold | KD fold (SG1 = 1) [8]: 0.01 fold | KD fold (SG1 = 1) [9]: 0.1 fold
